Assay results reported in patent US20240400686A1.

Molecular target: Human CD3εδ (human) (UniProt P07766)
Assay: SPR, sensorgrams at 10-300 nM; set-up not given

Kd: 49 nM
koff: 0.015 s⁻¹
kon: 300000 M⁻¹ s⁻¹
B1: humanized 26H8 Fab (Fab, V domains shown)
VH: QVQLQESGPGLVKPSETLSLTCTASGYTFTNYYIHWVRQSPGKGLEWIGWIYCGDGSTKFNEQFKDRTTLSADHSKTQASLKLSSVTAADTAIYFCARDWAGSYFFDFWGQGTMVTVSS
VL: DIQMTQSPSSLSASVGDRVTITCKSSQSLLNSRTRKNYLAWYQQKPGKAPKLLIYWASTRESGVPSRFSGSGSGTDFTFTISSLQPEDIATYYCKQSYILRTFGGGTKVEIKR
